Assay results: patent US20210017281A1 (IMMUNEXT, published 2021)

Target: T1, human VISTA (human, UniProt Q9H7M9 33-194, limits assumed)
T1 construct: The ELISA text says only recombinant VISTA; also called recombinant VISTA
Assay: method not stated (Table 1, column Kd, M)

Binder	Kd [nM]
VSTB65 (antibody, V domains shown) VH: QVQLVQSGAEVKKPGASVKVSCKASGYTFTSYWIHWVRQAPGQGLEWMGEINPSNGLTNYNEKFRNRVTMTRDTSTSTVYMELSSLRSEDTAVYYCARSYDYDGDYYAMDYWGQGTLVTVSS VL: DIVMTQSPLSLPVTPGEPASISCRSTQSIVHSNGNTYLEWYLQKPGQSPQLLIYKVSNRFSGVPDRFSGSGSGTDFTLKISRVEAEDVGVYYCFQASHVPWTFGQGTKLEIKR	1.08
INX907 | VSTB66 (antibody, V domains shown, INX name = the VSTB variable regions with human IgG2 constant regions) VH: QVQLVQSGAEVKKPGASVKVSCKASGYPFTGYFMHWVRQAPGQGLEWMGRINPYNGGTVYNQNFNDRVTMTRDTSTSTVYMELSSLRSEDTAVYYCARWTFDGLFMDYWGQGTTVTVSS VL: DVVMTQSPLSLPVTLGQPASISCRASENVDKYGISFMNWFQQRPGQSPRRLIYATSNQGSGVPDRFSGSGSGTDFTLKISRVEAEDVGVYYCQQSKEDPYTFGQGTKLEIK	0.0806
INX901 | VSTB56 (antibody, V domains shown, INX name = the VSTB variable regions with native human IgG2 constant regions; also called INX901 parental) VH: QVQLVQSGAEVKKPGASVKVSCKASGYTFTSYWLHWVRQAPGQGLEWMGYIIPNTLHTDYNQKFKDRVTMTRDTSTSTVYMELSSLRSEDTAVYYCARLDGDYDYALDYWGQGTLVTVSS VL: DIVMTQTPLSLSVTPGQPASISCRASESVEYYGTSFMQWYLQKPGQPPQLLIYTASNVESGVPDRFSGSGSGTDFTLKISRVEAEDVGVYYCQQSRKVPYTFGQGTKLEIK	0.0235
INX902 | VSTB63 (antibody, V domains shown, INX name = the VSTB variable regions with human IgG2 constant regions) VH: QVQLQESGPGLVKPSETLSLTCAVSGFSITSDFAWNWIRQPPGKGLEWIGYITYSGFTNYNPSLESRVTISVDTSKNQFSLKLSSVTAADTAVYYCARQEYGNYVWYFDVWGQGTLVTVSS VL: DIVMTQTPLSLSVTPGQPASISCRASESVEYYGTSLLQWYLQKPGQPPQLLIYAASNVESGVPDRFSGSGSGTDFTLKISRVEAEDVGVYYCQQSRKVPWTFGQGTKLEIK	0.83
INX906 | VSTB54 (antibody, V domains shown, INX name = the VSTB variable regions with human IgG2 constant regions) VH: QVQLVQSGAEVKKPGASVKVSCKASGYNIKDTYMHWVRQAPGQGLEWMGRIDPTHGYVIYDPKFQGRVTMTRDTSTSTVYMELSSLRSEDTAVYYCARDRFDPYWFLDVWGQGTLVTVSS VL: DIVMTQTPLSLSVTPGQPASISCRASESVEYYGTSLMQWYLQKPGQSPQLLIYDAFNVESGVPDRFSGSGSGTDFTLKISRVEAEDVGVYYCQQSRKVPWTFGQGTKLEIK	0.0253
INX900 | VSTB50 (antibody, V domains shown, INX name = the VSTB variable regions with human IgG2 constant regions) VH: QVQLVQSGSELKKPGASVKVSCKASGYTFTNYGLNWVRQAPGQGLEWMGWINPYTGEPTYADDFKGRFVFSLDTSVSTAYLQICSLKAEDTAVYYCAREGYGNYIFPYWGQGTLVTVSS VL: DIVMTQTPLSLSVTPGQPASISCRASESVDTYANSLMHWYLQKPGQPPQLLIYRASNLESGVPDRFSGSGSGTDFTLKISRVEAEDVGVYYCQQTNEDPRTFGQGTKLEIK	0.632
VSTB70 (antibody, V domains shown) VH: EVQLVQSGAEVKKPGATVKISCKVSGYTFSNYWIEWVQQAPGKGLEWMGEILPGSGNVHYNEKFKGRVTITADTSTDTAYMELSSLRSEDTAVYYCATPPHYYGYDYYDVNYWGQGTLVTVSS VL: DVVMTQSPLSLPVTLGQPASISCKSSQSLLDSDGKTYLNWFQQRPGQSPRRLIYLVSELDSGVPDRFSGSGSGTDFTLKISRVEAEDVGVYYCWQGTHFPQTFGQGTKLEIKR	2.23
VSTB74 (antibody, V domains shown) VH: QMQLVQSGPEVKKPGTSVKVSCKASGYIFTDYNIDWVRQARGQRLEWIGDINPKYDSTRYNQKFKGRVTITRDMSTSTAYMELSSLRSEDTAVYYCAADGSSAMDYWGQGTTVTVSS VL: DIVMTQSPDSLAVSLGERATINCKSSQSLLNSGHQKNYLAWYQQKPGQPPKLLIYGASTRESGVPDRFSGSGSGTDFTLTISSLQAEDVAVYYCQNDHRYPLTFGQGTKLEIKR	0.562
VSTB78 (antibody, V domains shown) VH: QVQLVQSGAEVKKPGASVKVSCKASGYTFTNYWMHWVRQAPGQGLEWMGYINPSSGYTEYNQKFKDRVTMTRDTSTSTVYMELSSLRSEDTAVYYCARDGGSVLFGYWGQGTTVTVSS VL: DIVMTQSPDSLAVSLGERATINCKSSQSLLNSGIRKNYLAWYQQKPGQPPKLLIYSASTRESGVPDRFSGSGSGTDFTLTISSLQAEDVAVYYCKQSYNLYTFGQGTKLEIKR	1.13
INX908 | VSTB92 (antibody, V domains shown, INX name = the VSTB variable regions with human IgG2 constant regions; also called INX908 parental) VH: QVQLVQSGAEVKKPGASVKVSCKASGYTFANYLIGWVRQAPGQRLEWMGDIYPGGGFISYNEKFKGRVTITRDTSASTAYMELSSLRSEDTAVYYCARRFDYGGYFFDYWGQGTLVTVSS VL: DIVMTQSPLSLPVTPGEPASISCRSSQSIVHSNGNIYLEWYLQKPGQSPQLLIYKVSNRFSGVPDRFSGSGSGTDFTLKISRVEAEDVGVYYCFQGSHVPWTFGQGTKLEIK	0.0934
VSTB59 (antibody, V domains shown) VH: QVQLVQSGAEVKKPGASVKVSCKASGYTFTDYWMHWVRQAPGQGLEWMGAIETSLNYPSYNQKFKGRVTMTRDTSTSTVYMELSSLRSEDTAVYYCARWGIYGNPWFAYWGRGTLVTVSS VL: DIVMTQTPLSLSVTPGQPASISCRASESVDSYVNSFVHWYLQKPGQPPQLLIYRASNLESGVPDRFSGSGSGTDFTLKISRVEAEDVGVYYCQQSNEDPYTFGQGTKLEIKR	0.106
VSTB60 (antibody, V domains shown) VH: QVQLVQSGSELKKPGASVKVSCKASGYTFTNYGMTWVRQAPGQGLEWMGWINTYTGESTYADDFKGRFVFSLDTSVSTAYLQICSLKAEDTAVYYCARDYYGIYVSAYWGQGTLVTVSS VL: DIVMTQTPLSLSVTPGQPASISCRASESVDNYANSFMHWYLQKPGQSPQLLIYRASNLESGVPDRFSGSGSGTDFTLKISRVEAEDVGVYYCQQSHEDPYTFGQGTKLEIKR	0.356
VSTB81 (antibody, V domains shown) VH: QVTLKESGPALVKPTQTLTLTCTFSGFSLSTSGMGVSWIRQPPGKALEWLAHIYWDDDKRYNPSLKSRLTISKDTSKNQVVLTMTNMDPVDTATYYCARRPDYFGSSYVDWGQGTTVTVSS VL: DIVMTQTPLSLSVTPGQPASISCRASESVDTYGNSFMHWYLQKPGQPPQLLIYLASNLDFGVPDRFSGSGSGTDFTLKISRVEAEDVGVYYCQQNNEDPWTFGQGTKLEIKR	0.312
